The DeepSol protein solubility set

Test: soluble on expression in E. coli; label from the status in PepcDB or PDB records

Question: Which “soluble on expression in E. coli” value does the source give for “MGSDKIHHHHHHMFVNRRAELKILHSAYESLKRGEKVNVAIIGPRRIGKTELLLKFKEEVNGVVPYLNLQRIGSLESFIFAYTRELLYEIAKVVGMSIERSDLLTWDDLLILSAKLDLEREVKAIRDGTLETLFEMQEAILEKTGQKAVFILDEFQEVVNFKGFLETMRAVTEKQRNIAYFISGSAVRMMEEILAPKNPFFGQFKRVYLRGLPKEDTIELAKTTLERAGIEATHSALELIYKLTQGHPFYVLALCRRLIEEGFEKVKSRDVYYAFLTELLSEKGDIYMHLEYLFNESLSRAYKGPIHKQILLILAQEEGLRLSEIARRLNKPSGEVSNYLKFLLRTDLILKQGERYYFTDKLMRFWLAKTYLGITELELRRERFLEELVRELEEKYLKAKKELGIAKEAMIRERMREIFDIDFKPYRRGDVEFDGVAFRDGVYVLEIKWRNRPATYKDVKDFIRKVKGEFGSATMFFFSRSGFTEKAKELCEKEGVKMLTPKDLGIS” here?
Answer: not soluble

Question: With “MSTFFQQTAQAMIAKHIDRFPLLKLDQVIDWQPIEQYLNRQKTRYLRDHRGRPACPLLSMFKAVLLGQWHNLSDPELEHSLITRIDFNLFCRFDELSIPDYSTLCRYRNRLAQDDTLSELLELINRQLTEKGLKVEKASAAVVDATIIQTVGSKQRQAIEVDEEGQVSGQTTLSKDKNARWTKKNSLYKLGYKQHTRTDAEGYIEKLHITPANAHECKHLSPLLEGLPEGTTIYADKGYDSAENRQHLEEHQLQDGIMRKACRNRPLTETQTKRNRYLSKTRYVVEQSFGTLHRKFRYARAAYFGLICARCRLKGSPDA” as the sequence, how does the “soluble on expression in E. coli” value read?
Answer: not soluble

Question: For “MQIVTDKNKVALYYKDIAVTYKEFILNTKKIKQFTKIKEFTNNMIYMENRPELLYSFFAIWDSRATCVCIDASSTAVELTYYIDNSDVVKIFTTKMQVEKVKGALSILSKQIEIIVVDEINLSEIKIDENSSENLVINSPEKEDTALILYTSGTTGKPKGVMLTFDLEHHHHHH”, which “soluble on expression in E. coli” value is on record?
Answer: not soluble

Question: With “MSITLRTYIFLDALQPQLATFIGKTARGFLPVPGQASLWVEIAPGIAINRVTDAALKATKVQPAVQVVERAYGLLEVHHFDQGEVLAAGSTILDKLEVREEGRLKPQVMTHQIIRAVEAYQTQIINRNSQGMMILPGESLFILETQPAGYAVLAANEAEKAANVHLVNVTPYGAFGRLYLAGSEAEIDAAAEAAEAAIRSVSGVAQESFRDR” as the sequence, how does the “soluble on expression in E. coli” value read?
Answer: not soluble

Question: With “MAHHHHHHMTGSTHNGGSRLIQYEDSSNKEFIRKYLVETRNEFIEKQMRALYECREIYKDDIDEVINILTYALENNDSVLLRHEVAYVIGQISNEKCNDILIKLLNDTEENLMVRHEAAEGLAAIGSDSNIEVIKKFLNDEKVEVRETCELALSSLLEKNKYAVCSCSNKDSIKEAIKKKRNDEFVSKKFNTIDPVVFTSSGNAKSVDALIEDLNNEAVPLKLRYEALFKLRDMETDVSINALGEVLIKDKKSAIFRHEVAFVLGQALHLNSLKYLISSLQNVGEHEMVRHEVALALGSLGSLNINSQEYKNVQSEIISTLKTFSKDACRVVAESCLVGLDYIAENLNMAIEVN” as the sequence, how does the “soluble on expression in E. coli” value read?
Answer: not soluble

Question: With “MSSVGDFEEIILHDLKPYYHVPGAIHSEGITFVKETGTLLWVDIFKGEVHKVEDIEQPESSHSFFSISRANYGKNASIEYPPNPDELKESVGCIFPILDGASQNEIKQVLFGSKFGIGKLDFSKSEWEYVILYSECPELSTDRAYKLRSNDGNVSPDGKYIYVGLMSDFPFDLEPIGCLLRVDLLAHKIELVWNCLLIPNAIHWDESDQKTMYVTDSLNFTIWKCPGGDLLKRDELIDVKNSNNQSFESPEPDGSAIWFSKDGKHSGFLFITVWSTSKVQMFDLTNGKLLKEFILPEQTPRVSCCCFVGKDLFVTTANAEINDAVRTNTDKNGGCIYKIPNVLDGNVPLESTKRQPLH” as the sequence, how does the “soluble on expression in E. coli” value read?
Answer: soluble

Question: With “MGHHKAMPYADVAAFIIELRKREAVAATALEFTILTAARSGETLGAKWHEIDWKDKIWTVPAERMKAAREHRVPLSSRTITILKKLAEFGSDENSFVFPGQKPGKPLSVMAMDMVLRRMEVDVTVHGFRSSFRDWCGEVSNFPRDVAEAALAHVVGDKTERAYRRGDALEKRRKLMAAWEKFCIAEIKKNPLEHHHHHH” as the sequence, how does the “soluble on expression in E. coli” value read?
Answer: not soluble

Question: For “MGSDKIHHHHHHMPPRKKAAIASTGIAGLDEILRGGLPLPNLFMLQGAPGSGKTTAAIQFLRAGVEAGESCLYVTLSQSAAELRSIAVSHGWTLDGIHVEELSTTGSIDEADEQSIFMTADLRLDETRKAIEAAIDEHKPQRLVYDSLLEIRLITGDSPRFRRELIGFKSFLSKRKVVALLLDTQSPGLDRSGEEVEGLAHGVIRFDKSLEEYGGVRRRIEVSKMRGVPIADGYHDMAIREGAGVVVFPRIMPSTATEATKPQLIKSGVSELDDMFGGGQEAGTTTLVIGQAGTGKSTMSSLYATAALERGESVALFLFEERLETFFRRSEGLGMQLRQFHKDGKLILRDFNPNEVSPGEFGQIVQDAVVQNKVRVVVIDSLTGYLNSLPHREKAVRDIQSLLKYLARSGVLTMLIVAQHGLLGQNVGIDVDVSFLGDTVLLLRIMEHEGRLRRSITVVKKRHGPHDLDVRELLIESGSVSVVSYNPLPDPK”, which “soluble on expression in E. coli” value is on record?
Answer: not soluble

Question: Which “soluble on expression in E. coli” value does the source give for “MNTLVLPKTQHLVVFQEVIRSGSIGSAAKSLGLTQPAVSKIISDVEAYFGVELIVRKNTGVTLTEAGQVLLSWSESITREMKNMINEMNSMTCNTVVDVSFGFPSLIGFTFMSDMIHKFKEVFPKAQVSMYEAQLSSFLPALRDGRLDFAIGTLSNEMQLQDLHVEPLFESEFVLVASKSRTCTGTITLESLKDEQWVLPQTNMGYYSELLTTLQRNGISIENIVKTDSVVTIYNLVLNADFLTVIPCDMTTPFGSNQFITIPIQDTLPVARYAAVWSKNYRIKKAASVLVELAKQYSSYNGCRRRQLIEIE” here?
Answer: soluble

Question: For “MGSDKIHHHHHHMTPSIPPEVAQHLGYYVYLYVDPRTEQVFYVGKGQGQRVLSHLSAEGESRKAQILAELRQAQLSPRLDILAHGLPDEATAYRIEAAAIDLLGLDSLSNLVRGWQSVRSGRRSLEELVTYYAAPPAVITDPVMLIRSNRLYWHGMPAQELYEATRGVWKVAKWRQQEVKYALAVFEGVVREVYTIESWHPAGQTPYQTRLAEAVNDPQRWEFVGHVAPEEVRNRYLYHSVTASFARNAQNPIAYPPVT”, which “soluble on expression in E. coli” value is on record?
Answer: not soluble

Question: Which “soluble on expression in E. coli” value does the source give for “SPLLLYTCLLWLPTSGLWTVQAMDPNAAYVNMSNHHRGLASANVDFAFSLYKHLVALSPKKNIFISPVSISMALAMLSLGTCGHTRAQLLQGLGFNLTERSETEIHQGFQHLHQLFAKSDTSLEMTMGNALFLDGSLELLESFSADIKHYYESEVLAMNFQDWATASRQINSYVKNKTQGKIVDLFSGLDSPAILVLVNYIFFKGTWTQPFDLASTREENFYVDETTVVKVPMMLQSSTISYLHDAELPCQLVQMNYVGNGTVFFILPDKGKMNTVIAALSRDTINRWSAGLTSSQVDLYIPKVTISGVYDLGDVLEEMGIADLFTNQANFSRITQDAQLKSSKVVHKAVLQLNEEGVDTAGSTGVTLNLTSKPIILRFNQPFIIMIFDHFTWSSLFLARVMNPV” here?
Answer: soluble

Question: With “MVNTLAFEYSYKALIVYCRINNNNFSLVKLKSNLNFSVPKIFNDFVIKNNIDLNQIELIINSCGPGSFTGLRISLSFVKGLALGLSIPFVNISTLDVFANLVENNPSAVVLTFTAGKYFLGNYKNCKLIGKILCFSKKDLFEYLNQIDPNSVLIGNNLEDVCKECNYKFKIIENLSSFGKILTELGVAKYLKNRKGDDILSGPLYIRQSDAEVNFHSLEHHHHHH” as the sequence, how does the “soluble on expression in E. coli” value read?
Answer: not soluble

Question: Which “soluble on expression in E. coli” value does the source give for “MSLKIFEFVPPTDKEIEEAQLKLGFKFSPEYIEFIKSGYDLGDAPIEALEISNPPSHADIFETLANARKYFQMPSEMCPICEDNSDYYCLNQKGEVVFWSHNGTTSEKWANVTVWRNQMATEVEGHHHHHH” here?
Answer: soluble

Question: Which “soluble on expression in E. coli” value does the source give for “ATRMAPVIMVPGSSASQNRFDSLITELGKETPKKHSVLKLTVQTDGTIKYSGSIAANDNEPFIVIGFANNRDGKANIDKQAVWLNTAFKALVKTYHFNHFYALGHSNGGLIWTLFLERYLKESPKVHIDRLMTIASPYNMESTSTTAKTSMFKELYRYRTGLPESLTVYSIAGTENYTSDGTVPYNSVNYGKYIFQDQVKHFTEITVTGANTAHSDLPQNKQIVSLIRQYLLAETMPDKVRQKNAQRVQN” here?
Answer: soluble

Question: Which “soluble on expression in E. coli” value does the source give for “MHHHHHHSSGVDLGTENLYFQSMATGQKLMRAVRVFEFGGPEVLKLRSDIAVPIPKDHQVLIKVHACGVNPVETYIRSGTYSRKPLLPYTPGSDVAGVIEAVGDNASAFKKGDRVFTSSTISGGYAEYALAADHTVYKLPEKLDFKQGAAIGIPYFTAYRALIHSACVKAGESVLVHGASGGVGLAACQIARAYGLKILGTAGTEEGQKIVLQNGAHEVFNHREVNYIDKIKKYVGEKGIDIIIEMLANVNLSKDLSLLSHGGRVIVVGSRGTIEINPRDTMAKESSIIGVTLFSSTKEEFQQYAAALQAGMEIGWLKPVIGSQYPLEKVAEAHENIIHGSGATGKMILLL” here?
Answer: soluble

Question: For “MPRPKILKRATVQPSAAVPVKKSTPEKEGSRQKKTNGKENASRNLQSNLEEDLEQLGFEDETVSMAQSAIENYFMQGKSASERMNNAKSRRGRRAGNGNTEEIEEDDEISNAITDFTKCDLPGLRNYITKKDNTEFEKRLEHLADNDFGKWKLYLAAGFNILLHGVGSKRDVLTEFENELSDYTYMRVDARKDGLNVKVLLGAINENMKLNCNVKRGQSTISWARSIRRKMNSQQLILIIDNIEAPDWRSDQEAFCELLENRDSVKLIATVDHIYSTFIWNSRQLSSLSFVHITINTFEIPLQELMTGDSRLLGLDARSNQSSHTMSSLDVFWKSLAVNSQKLFRLFFQMYFDTKKPVKFWDLFNAAKDDFIASTDAALRTQLVEFKDHRVLKWTRGDDGNDQLSGIVELRLVTEFLESKNMPLDEKKDE”, which “soluble on expression in E. coli” value is on record?
Answer: not soluble

Question: Which “soluble on expression in E. coli” value does the source give for “MGSDKIHHHHHHMNYNKLSSATIQGIEAMKIDVEVDFDNRSVFNDIDVVGLGDTAVKESRKRVKSAILNSGFSLPHGKYVVNLAPGDVRKEGSMLDLPIALCILASTGIVQVSENILAIGELSLNGEVKRVNGVLPVLLSLSEMFSGTVLIPKENEEEAKCVKELDIYAVESLRECVEFLRGDRTLKRIEYSGIENTNLEYEIDFSDVRDHEMVKRAVEIAVAGFHNILMVGNPGSGKTMIAKRIPTIFPPMSEEEILETSKVYSASGYPGIVKLRPFRAPHHTASTVSIIGGGTNPRPGEISLAHNGVLFLDELPEFKRDVLEALRQPLEEGIVTVARAKFTVTYPARFMLVGAMNPCPCGNLGDPKQPCVCSPRDIMRYRKKISGPLLDRMDLVINVPKLSFEEMMKKPEGEKSSSIRERVMKAREIQKRRFRDTHISCNSQMSHRMLRRFVQLDEKSEDLLKRYVERYGLSGRKIDKVLKISRTIADLEGSNGVEMSHLAEALQYRFRES” here?
Answer: not soluble

Question: Which “soluble on expression in E. coli” value does the source give for “MPQESSDAKRIEPPRKVDFMLKPRFTNTVPDVPFDAKFMTCPFVPLGRFVEFQPAAIYRDYKHAVICDDDMGLNVDLIDLKKYDEDPIETEIDEKDNILLEDDGAAKLIAKRSQQHSKLVPWMRKTEYISTEFNRFGVTADRQETKLGYNLKKNQQVEDMYRDKQSQIDAINKTFEDVRKPVKEHYSKKGVKAVEESFVFPDFDHWKHLFAHVQFDGDTITTEFEEEDERQQARESSVIKAMEFEDQKFAAVFVPTIGCLTSFMDDLELERPFDEDMKYEFLLSREYTFKMEHLPPRDRDVFIMYHRNNVFQYNEVDCNVKMTRKPKMALSRKSKLTLTYRNPSELEQKDMNKREAELYEQPKTRKQEILEKIQEKKEEGGDSSDQSSDSDDDKPQKSRSDSSSDVSSDDDSPRKKEPTVDSDSD” here?
Answer: not soluble
